From US20260210939A1, “MODIFIED OLFACTORY RECEPTORS” (GIVAUDAN SA, priority 2022, published 2026) come the findings set out here.

One data set addresses T1, OR52A5 (Homo sapiens, UniProt Q9H2C5).
T1 construct: Improved functional expression of modified OR-genes containing the truncated, optimized C-terminus; expressed in transfected cells; host or cells: HEK293T stably expressing human RTP1S(V227I) and RTP2(L220R)
T1 sequence (Q9H2C5 with tags, fused parts or gaps): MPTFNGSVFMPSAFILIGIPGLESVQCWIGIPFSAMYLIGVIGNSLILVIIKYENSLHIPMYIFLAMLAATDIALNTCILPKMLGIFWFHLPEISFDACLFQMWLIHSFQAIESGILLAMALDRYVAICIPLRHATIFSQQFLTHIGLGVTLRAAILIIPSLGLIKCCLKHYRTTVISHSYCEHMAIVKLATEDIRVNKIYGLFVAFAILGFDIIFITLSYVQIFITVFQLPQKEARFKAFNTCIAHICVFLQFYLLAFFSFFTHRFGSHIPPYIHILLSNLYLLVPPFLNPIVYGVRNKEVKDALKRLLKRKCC
The format is cell-based. The protocol:
Further variants of the improved C-terminal domain sequence […] (SEQ ID NO: 86) and falling within the general sequence RN[KR][EDQ][VMIL][KR]xA[LIV][KRH][KR][LI][LIF][KRG][KR][KR] (SEQ ID NO: 1) with further amino acids at the C-terminal end (CC) were tested on the class I receptor OR52A5 activated by 4-ethyloctanoic acid. […] This activation is further improved by either replacing amino acid position 4-6 with the sequence QIR or by adding the terminal sequence RRR.

A further data set deals with T2, OR5A2 (Homo sapiens, UniProt Q8NGI9).
T2 construct: Improved functional expression of modified OR-genes containing the truncated, optimized C-terminus; expressed in transfected cells; host or cells: HEK293T with stably integrated human RTP1S(V227I) and RTP2(L220R)
T2 sequence (Q8NGI9 with tags, fused parts or gaps): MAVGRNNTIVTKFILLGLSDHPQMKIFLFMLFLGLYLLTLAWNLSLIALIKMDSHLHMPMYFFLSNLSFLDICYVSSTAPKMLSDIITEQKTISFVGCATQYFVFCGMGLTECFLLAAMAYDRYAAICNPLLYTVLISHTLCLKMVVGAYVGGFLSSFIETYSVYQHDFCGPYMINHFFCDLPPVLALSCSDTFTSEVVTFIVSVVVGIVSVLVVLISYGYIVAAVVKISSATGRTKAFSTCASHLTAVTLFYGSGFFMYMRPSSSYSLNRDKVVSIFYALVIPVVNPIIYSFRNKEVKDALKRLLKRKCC
Kind of data set: CRE-luciferase assay, HEK293T cells expressing OR5A2 (wild-type / modified C-terminus). The format is cell-based. The conditions noted are these: for fold-induction of luciferase: OR5A2 variant.

A further data set deals with T3, OR2T4 (Homo sapiens, UniProt Q8NH00, D328E/G331D/M330K).
T3 sequence (Q8NH00 with tags, fused parts or gaps D328E/M330K/G331D): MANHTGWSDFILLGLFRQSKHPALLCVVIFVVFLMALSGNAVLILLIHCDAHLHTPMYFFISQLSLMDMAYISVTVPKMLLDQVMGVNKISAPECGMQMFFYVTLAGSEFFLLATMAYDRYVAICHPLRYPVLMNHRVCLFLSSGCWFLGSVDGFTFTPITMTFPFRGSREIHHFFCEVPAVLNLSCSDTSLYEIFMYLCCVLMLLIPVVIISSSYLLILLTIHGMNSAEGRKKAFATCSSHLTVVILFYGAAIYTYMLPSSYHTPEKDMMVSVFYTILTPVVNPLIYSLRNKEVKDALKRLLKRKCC
The conditions noted are these: OR2T4 variant.

In another data set the target is T4, OR5B12 (Homo sapiens, UniProt Q96R08, C141R).
T4 construct: Improved functional expression of modified OR-genes containing the truncated, optimized C-terminus; expressed in transfected cells; host or cells: HEK293T stably expressing human RTP1S(V227I) and RTP2(L220R)
T4 sequence (Q96R08 with tags, fused parts or gaps C141R): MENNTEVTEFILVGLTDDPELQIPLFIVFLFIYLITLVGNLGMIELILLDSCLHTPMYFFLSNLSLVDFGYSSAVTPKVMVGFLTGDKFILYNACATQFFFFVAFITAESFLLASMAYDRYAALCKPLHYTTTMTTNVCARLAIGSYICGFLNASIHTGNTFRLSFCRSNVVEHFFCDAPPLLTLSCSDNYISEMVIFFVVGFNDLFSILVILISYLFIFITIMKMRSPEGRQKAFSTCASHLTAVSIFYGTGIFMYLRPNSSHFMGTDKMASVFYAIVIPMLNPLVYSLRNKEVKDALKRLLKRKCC
The data set can be described thus: CRE-luciferase assay, HEK293T cells expressing OR5B12 (wild-type / modified C-terminus). Format: cell-based. The conditions noted are these: OR5B12 variant.

Another data set concerns the target T5, OR7D4 (Homo sapiens, UniProt Q8NG98, D296E/E302K/G299D).
T5 construct: Improved functional expression of modified OR-genes containing the truncated, optimized C-terminus; expressed in transfected cells
T5 sequence (Q8NG98 with tags, fused parts or gaps D296E/G299D/E302K): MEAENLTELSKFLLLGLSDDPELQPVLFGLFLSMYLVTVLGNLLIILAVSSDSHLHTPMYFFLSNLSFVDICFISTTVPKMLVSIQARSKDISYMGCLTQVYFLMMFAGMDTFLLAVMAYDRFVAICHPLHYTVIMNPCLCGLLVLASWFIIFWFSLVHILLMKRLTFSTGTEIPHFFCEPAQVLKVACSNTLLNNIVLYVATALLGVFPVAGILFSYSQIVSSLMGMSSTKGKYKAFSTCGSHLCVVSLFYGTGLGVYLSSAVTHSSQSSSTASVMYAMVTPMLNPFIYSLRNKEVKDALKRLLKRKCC
Kind of data set: CRE-luciferase assay, HEK cells expressing OR7D4 (wild-type / modified C-terminus). The format is cell-based. The conditions noted are these: OR7D4 variant, Androstenone. An excerpt:
Random permutations of the general C-terminal sequence RN[KR][EDQ][VMIL][KR]KA[LIV][KRH][KR][LI][LIF][KRG][KR][KR]CC (SEQ ID NO: 822) linked to OR7D4 were generated based on degenerate oligonucleotides for the C-terminal domain. For this experiment, the MfeI/XhoI fragment from pcDNA3.1(+)-mmLucy-FLAG-rho-OR7D4 containing the CMV promoter and the OR coding sequence was used to replace the EcoRI/SalI fragment of pRDVCCB-CMV-dCas9-VPH-2A-Blast (Cellecta, Inc., Mountain View, USA). Complementary degenerate oligonucleotides were then used to replace the coding region of the C-terminal domain of […] (between Bsu36I and NotI). Random clones were selected, sequenced and tested for a correct open reading frame. A total of 55 clones were obtained with the correct open reading frame of […] and a permutation of the general sequence RN[KR][EDQ][VMIL][KR]KA[LIV][KRH][KR][LI][LIF][KRG][KR][KR]CC (SEQ ID NO: 822) as the C-terminal domain. All the different clones were compared to the wild-type sequence by the functional assay in HEK cells with the ligand Androstenone tested in a dose-response test.

A further data set has as its target T6, OR7C1 (Homo sapiens, UniProt O76099, D296E/G302K/M297V/R299D/T295K/V126I).
T6 construct: Improved functional expression of modified OR-genes containing the truncated, optimized C-terminus; expressed in transfected cells; host or cells: HEK293T stably expressing human RTP1S(V227I) and RTP2(L220R)
T6 sequence (O76099 with tags, fused parts or gaps V126I/T295K/D296E/M297V/R299D/G302K): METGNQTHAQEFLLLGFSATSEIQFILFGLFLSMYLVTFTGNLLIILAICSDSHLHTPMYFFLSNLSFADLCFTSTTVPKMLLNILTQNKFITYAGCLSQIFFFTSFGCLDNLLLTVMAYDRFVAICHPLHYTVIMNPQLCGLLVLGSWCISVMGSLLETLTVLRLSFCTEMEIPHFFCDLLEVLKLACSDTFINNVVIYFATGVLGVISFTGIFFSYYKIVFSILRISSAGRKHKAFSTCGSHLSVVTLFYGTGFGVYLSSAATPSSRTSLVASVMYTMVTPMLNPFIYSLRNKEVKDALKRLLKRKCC
The data set can be described thus: CRE-luciferase assay, HEK293T cells expressing OR7C1 (wild-type / modified C-terminus). Format: cell-based. The conditions noted are these: for % of the activation by the optimized sequence RNKEVKDALKRLLKRKCC: OR7C1 variant, 1 μM Ambermax. From the text:
To test for possible variants of the sequence […]CC (SEQ ID NO: 86) leading to similar improved functional expression, different point mutations were introduced into the first 16 amino acids of this sequence (corresponding to […], SEQ ID NO: 10) and the variants were fused after the TM7 with OR7C1. […] The test concentrations were selected to fall into the range of partial activity of the wild-type sequence.

[1] abbreviates: 4 μM 2-methyl-3-tetrahydrofuranethiol.
Where [2] appears, read: 8 μM 2-methyl-3-tetrahydrofuranethiol.

Read-outs that look alike come from different tables or passages of the source.

Turning to `CCCCC(CC)CCC(=O)O` (stereo not shown) [4-ethyloctanoic acid, reference compound], at OR52A5, the Comments on efficacy is 2.5-fold lower. For the same molecule, the Fold-improvement threshold on OR52A5 (changed C-term. vs wild-type) is above 10.
For `CC1COCc2cc3c(cc21)C(C)(C)C(C)C3(C)C` (stereo not shown) [Galaxolide, reference compound], the Comments on efficacy result on OR5A2 is “No induction”. Also, the “Detection threshold; concentration for 2-fold induction” value on OR5A2 (changed C-term. SEQ ID NO: 86) was 0.0016 µM; on OR5A2 (wild-type), “(>>31) μM”. This molecule had a Fold-improvement potency on OR5A2 (changed C-term. vs wild-type) above 300. Also, the Fold-improvement threshold on OR5A2 (changed C-term. vs wild-type) is above 20000. For the same molecule, at OR5A2 (modified OR5A2, SEQ ID NO: 86), the “concentration at which activation occurs” value was below 0.01 µM.
For the molecule `CCOc1cc(C=O)ccc1O` [ethyl vanillin, reference compound], on OR5A2 (modified OR5A2, SEQ ID NO: 86), the “response of the modified receptor” value was “no response”.
On to “SEQ ID NO: 86: optimized C-terminal sequence fused after TM7 of the OR of the assay (RNKEVKDALKRLLKRKCC; source 1..18: note = C-terminal domain sequence)”, for which the “% of the activation by the optimized sequence RNKEVKDALKRLLKRKCC” value (“% of the activation” for short) with OR2T4 (setting [1]) is 100%; with OR2T4 (setting [2]) it was 100%; in the data set with OR2T4 (10 μM Cyclopentanethiol, 30 μM copper) it was 100%; with OR2T4 (31 μM Cyclopentanethiol, 30 μM copper), 100%; with OR5B12 (31 μM Hedione HC) it was 100%; in the data set with OR5B12 (62.5 μM Hedione HC) it was 100%. The “% of the activation” value in the data set with OR7C1 is reported as 100%. Also, the fold-induction of luciferase with OR5A2 (muscone 0.01 μM) was found to be 1.07; with OR5A2 (muscone 0.03 μM) it was 1.48; in the data set with OR5A2 (muscone 0.10 μM) it was 3.57; with OR5A2 (muscone 0.32 μM) it was 10.02; with OR5A2 (muscone 1.00 μM) it was 21.98; in the data set with OR5A2 (muscone 3.16 μM) it was 31.84. Further, the fold-induction of luciferase in the data set with OR5A2 (muscone 10.00 μM) turned out to be 33.98. Further, in the data set with OR7D4, the “EC2 (concentration for 2-fold luciferase induction)” value was 0.007 µM. The “EC2 Fold-improvement vs. wild-type” value with OR7D4 was determined as 249.44. Also, the luciferase induction entry with OR7C1 (1 μM of Ambermax) is listed as “around 10 fold”. The figures for the “fold induction of luciferase by 4-ethyloctanoic acid” value (“fold induction of luciferase” below) with OR52A5 (1 µM), with OR52A5 (10 µM) and with OR52A5 (31 µM) were 2.21, 3.53 and 7.64, respectively.
“SEQ ID NO: 117 (RNKEVKKAIKRLFKRKCC; source 1..18: note = C-terminal domain sequence)”: the “% of the activation” value in the data set with OR2T4 (setting [1]) amounted to 96.2%; with OR2T4 (setting [2]), 88.2%; with OR5B12 (31 μM Hedione HC) it was 435.4%; with OR5B12 (62.5 μM Hedione HC), 282.5%; with OR7C1 it was 310.7%. The fold-induction of luciferase with OR5A2 (muscone 0.01 μM) turned out to be 0.96; in the data set with OR5A2 (muscone 0.03 μM) it was 1.39; in the data set with OR5A2 (muscone 0.10 μM) it was 3.49; in the data set with OR5A2 (muscone 0.32 μM), 9.33; in the data set with OR5A2 (muscone 1.00 μM) it was 19.44; with OR5A2 (muscone 3.16 μM), 27.31. Further, the fold-induction of luciferase with OR5A2 (muscone 10.00 μM) is listed as 30.34.
For “SEQ ID NO: 156 (RNKEVKDALKRLLKRKCCRRR; source 1..21: note = C-terminal domain sequence)”, the “% of the activation” value with OR5B12 (31 μM Hedione HC) is recorded as 250.7%; in the data set with OR5B12 (62.5 μM Hedione HC), 233.4%. The “fold induction of luciferase” value with OR52A5 (1 µM) came to 9.39; with OR52A5 (10 µM), 14.90; with OR52A5 (31 µM), 22.00.
For the molecule “SEQ ID NO: 740 (RNKQIRDALKRLLKRKCC; source 1..18: note = C-terminal domain sequence)”, the entries for the “fold induction of luciferase” value in the data set with OR52A5 (1 µM), with OR52A5 (10 µM) and in the data set with OR52A5 (31 µM) were 10.09, 12.30 and 19.31, respectively.
